The values below come from publication PMC7611929 (Nature structural & molecular biology, 2021).

The data set “AUC” concerns the molecule itself. Nature of the data set: AUC.
The data set “SEC-MALS” deals with the molecule itself. Description: SEC-MALS.

B1: TRIM21 RING-Box-Coiled-Coil (T21RBCC; residues 1-235) (domain or fragment, UniProt P19474 1-235, looked up)
chain: MASAARLTMMWEEVTCPICLDPFVEPVSIECGHSFCQECISQVGKGGGSVCPVCRQRFLLKNLRPNRQLANMVNNLKEISQEAREGTQGERCAVHGERLHLFCEKDGKALCWVCAQSRKHRDHAMVPLEEAAQEYQEKLQVALGELRRKQELAEKLEVEIAIKRADWKKTVETQKSRIHAEFVQQKNFLVEEEQRQLQELEKDEREQLRILGEKEAKLAQQSQALQELISELDRR
Turning to B1, the binding result in “AUC” was “binds”.

B2: TRIM21 coiled-coil (T21CC235; residues 129-235) (domain or fragment, UniProt P19474 129-235, looked up)
chain: EEAAQEYQEKLQVALGELRRKQELAEKLEVEIAIKRADWKKTVETQKSRIHAEFVQQKNFLVEEEQRQLQELEKDEREQLRILGEKEAKLAQQSQALQELISELDRR
A word on the stoichiometry N: it is the number of molecules, sites or subunits per partner or assembly. On to B2, for which the “stoichiometry N” value in the data set “SEC-MALS” was determined as 2.
